Measured values from patent publication US12679878B2, “CRF2 receptor agonists and their use in therapy” (SANOFI, priority 2020, dated 2026).
Starred links: 1 amine or outer side, 2 acyl side, 3 side chain; linkers in the order of their positions; H or OH if unused. Non-standard residues stand in square brackets, D forms with d. Groups on a side chain read outwards from the residue. No end group written: not given here. *: point of attachment. C18 diacid = O=C(O)CCCCCCCCCCCCCCCCC(=O)*; γGlu = O=C(O)[C@H](CCC(=O)[*:2])N[*:1]; AEEA = NCCOCCOCC(=O)O; Aib = CC(C)(N)C(=O)O

target: human corticotropin-releasing factor 2α (CRF2 α receptor) (human), Q13324; experiment: cell-based or functional assay
Sequence (Q13324 20-411): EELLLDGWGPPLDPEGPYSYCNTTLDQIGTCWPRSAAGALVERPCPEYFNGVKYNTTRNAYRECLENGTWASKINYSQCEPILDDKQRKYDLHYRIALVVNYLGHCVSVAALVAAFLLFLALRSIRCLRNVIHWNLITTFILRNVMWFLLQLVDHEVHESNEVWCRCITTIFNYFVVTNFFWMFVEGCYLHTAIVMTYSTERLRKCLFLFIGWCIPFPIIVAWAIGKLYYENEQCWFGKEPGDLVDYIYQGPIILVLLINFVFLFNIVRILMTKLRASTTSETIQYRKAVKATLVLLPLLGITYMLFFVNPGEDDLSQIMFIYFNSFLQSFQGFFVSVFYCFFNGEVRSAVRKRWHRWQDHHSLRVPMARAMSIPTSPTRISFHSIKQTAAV

EC50 [nM], 0% HSA | Binder
15.4 nM | IVLSLDVPIKLK([AEEA-AEEA-γGlu-C18 diacid])QILLEQERQRKERQQAETNVQILAQV-NH2 (N-terminus assumed; SMILES CC[C@H](C)[C@H](N)C(=O)N[C@H](C(=O)N[C@@H](CC(C)C)C(=O)N[C@@H](CO)C(=O)N[C@@H](CC(C)C)C(=O)N[C@@H](CC(=O)O)C(=O)N[C@H](C(=O)N1CCC[C@H]1C(=O)N[C@H](C(=O)N[C@@H](CCCCN)C(=O)N[C@@H](CC(C)C)C(=O)N[C@@H](CCCCNC(=O)COCCOCCNC(=O)COCCOCCNC(=O)CC[C@H](NC(=O)CCCCCCCCCCCCCCCCC(=O)O)C(=O)O)C(=O)N[C@@H](CCC(N)=O)C(=O)N[C@H](C(=O)N[C@@H](CC(C)C)C(=O)N[C@@H](CC(C)C)C(=O)N[C@@H](CCC(=O)O)C(=O)N[C@@H](CCC(N)=O)C(=O)N[C@@H](CCC(=O)O)C(=O)N[C@@H](CCCNC(=N)N)C(=O)N[C@@H](CCC(N)=O)C(=O)N[C@@H](CCCNC(=N)N)C(=O)N[C@@H](CCCCN)C(=O)N[C@@H](CCC(=O)O)C(=O)N[C@@H](CCCNC(=N)N)C(=O)N[C@@H](CCC(N)=O)C(=O)N[C@@H](CCC(N)=O)C(=O)N[C@@H](C)C(=O)N[C@@H](CCC(=O)O)C(=O)N[C@H](C(=O)N[C@@H](CC(N)=O)C(=O)N[C@H](C(=O)N[C@@H](CCC(N)=O)C(=O)N[C@H](C(=O)N[C@@H](CC(C)C)C(=O)N[C@@H](C)C(=O)N[C@@H](CCC(N)=O)C(=O)N[C@H](C(N)=O)C(C)C)[C@@H](C)CC)C(C)C)[C@@H](C)O)[C@@H](C)CC)[C@@H](C)CC)C(C)C)C(C)C) [SEQ ID NO: 40]
1.9 nM | IVLSLDVPIKLK([AEEA-AEEA-γGlu-C18 diacid])QILLEQAKQKKLRAQAETNVRILERV-NH2 (N-terminus assumed; SMILES CC[C@H](C)[C@H](N)C(=O)N[C@H](C(=O)N[C@@H](CC(C)C)C(=O)N[C@@H](CO)C(=O)N[C@@H](CC(C)C)C(=O)N[C@@H](CC(=O)O)C(=O)N[C@H](C(=O)N1CCC[C@H]1C(=O)N[C@H](C(=O)N[C@@H](CCCCN)C(=O)N[C@@H](CC(C)C)C(=O)N[C@@H](CCCCNC(=O)COCCOCCNC(=O)COCCOCCNC(=O)CC[C@H](NC(=O)CCCCCCCCCCCCCCCCC(=O)O)C(=O)O)C(=O)N[C@@H](CCC(N)=O)C(=O)N[C@H](C(=O)N[C@@H](CC(C)C)C(=O)N[C@@H](CC(C)C)C(=O)N[C@@H](CCC(=O)O)C(=O)N[C@@H](CCC(N)=O)C(=O)N[C@@H](C)C(=O)N[C@@H](CCCCN)C(=O)N[C@@H](CCC(N)=O)C(=O)N[C@@H](CCCCN)C(=O)N[C@@H](CCCCN)C(=O)N[C@@H](CC(C)C)C(=O)N[C@@H](CCCNC(=N)N)C(=O)N[C@@H](C)C(=O)N[C@@H](CCC(N)=O)C(=O)N[C@@H](C)C(=O)N[C@@H](CCC(=O)O)C(=O)N[C@H](C(=O)N[C@@H](CC(N)=O)C(=O)N[C@H](C(=O)N[C@@H](CCCNC(=N)N)C(=O)N[C@H](C(=O)N[C@@H](CC(C)C)C(=O)N[C@@H](CCC(=O)O)C(=O)N[C@@H](CCCNC(=N)N)C(=O)N[C@H](C(N)=O)C(C)C)[C@@H](C)CC)C(C)C)[C@@H](C)O)[C@@H](C)CC)[C@@H](C)CC)C(C)C)C(C)C) [SEQ ID NO: 43]
15.6 nM | IVLSLDVPIKLK([AEEA-AEEA-γGlu-C18 diacid])QILLEQERQRKERQQAEKNVRILERV-NH2 (N-terminus assumed; SMILES CC[C@H](C)[C@H](N)C(=O)N[C@H](C(=O)N[C@@H](CC(C)C)C(=O)N[C@@H](CO)C(=O)N[C@@H](CC(C)C)C(=O)N[C@@H](CC(=O)O)C(=O)N[C@H](C(=O)N1CCC[C@H]1C(=O)N[C@H](C(=O)N[C@@H](CCCCN)C(=O)N[C@@H](CC(C)C)C(=O)N[C@@H](CCCCNC(=O)COCCOCCNC(=O)COCCOCCNC(=O)CC[C@H](NC(=O)CCCCCCCCCCCCCCCCC(=O)O)C(=O)O)C(=O)N[C@@H](CCC(N)=O)C(=O)N[C@H](C(=O)N[C@@H](CC(C)C)C(=O)N[C@@H](CC(C)C)C(=O)N[C@@H](CCC(=O)O)C(=O)N[C@@H](CCC(N)=O)C(=O)N[C@@H](CCC(=O)O)C(=O)N[C@@H](CCCNC(=N)N)C(=O)N[C@@H](CCC(N)=O)C(=O)N[C@@H](CCCNC(=N)N)C(=O)N[C@@H](CCCCN)C(=O)N[C@@H](CCC(=O)O)C(=O)N[C@@H](CCCNC(=N)N)C(=O)N[C@@H](CCC(N)=O)C(=O)N[C@@H](CCC(N)=O)C(=O)N[C@@H](C)C(=O)N[C@@H](CCC(=O)O)C(=O)N[C@@H](CCCCN)C(=O)N[C@@H](CC(N)=O)C(=O)N[C@H](C(=O)N[C@@H](CCCNC(=N)N)C(=O)N[C@H](C(=O)N[C@@H](CC(C)C)C(=O)N[C@@H](CCC(=O)O)C(=O)N[C@@H](CCCNC(=N)N)C(=O)N[C@H](C(N)=O)C(C)C)[C@@H](C)CC)C(C)C)[C@@H](C)CC)[C@@H](C)CC)C(C)C)C(C)C) [SEQ ID NO: 41]
0.65 nM | IVLSLDVPIKLK([AEEA-AEEA-γGlu-C18 diacid])QILLEQERQRKERQQAETNAQILAQV-NH2 (N-terminus assumed; SMILES CC[C@H](C)[C@H](N)C(=O)N[C@H](C(=O)N[C@@H](CC(C)C)C(=O)N[C@@H](CO)C(=O)N[C@@H](CC(C)C)C(=O)N[C@@H](CC(=O)O)C(=O)N[C@H](C(=O)N1CCC[C@H]1C(=O)N[C@H](C(=O)N[C@@H](CCCCN)C(=O)N[C@@H](CC(C)C)C(=O)N[C@@H](CCCCNC(=O)COCCOCCNC(=O)COCCOCCNC(=O)CC[C@H](NC(=O)CCCCCCCCCCCCCCCCC(=O)O)C(=O)O)C(=O)N[C@@H](CCC(N)=O)C(=O)N[C@H](C(=O)N[C@@H](CC(C)C)C(=O)N[C@@H](CC(C)C)C(=O)N[C@@H](CCC(=O)O)C(=O)N[C@@H](CCC(N)=O)C(=O)N[C@@H](CCC(=O)O)C(=O)N[C@@H](CCCNC(=N)N)C(=O)N[C@@H](CCC(N)=O)C(=O)N[C@@H](CCCNC(=N)N)C(=O)N[C@@H](CCCCN)C(=O)N[C@@H](CCC(=O)O)C(=O)N[C@@H](CCCNC(=N)N)C(=O)N[C@@H](CCC(N)=O)C(=O)N[C@@H](CCC(N)=O)C(=O)N[C@@H](C)C(=O)N[C@@H](CCC(=O)O)C(=O)N[C@H](C(=O)N[C@@H](CC(N)=O)C(=O)N[C@@H](C)C(=O)N[C@@H](CCC(N)=O)C(=O)N[C@H](C(=O)N[C@@H](CC(C)C)C(=O)N[C@@H](C)C(=O)N[C@@H](CCC(N)=O)C(=O)N[C@H](C(N)=O)C(C)C)[C@@H](C)CC)[C@@H](C)O)[C@@H](C)CC)[C@@H](C)CC)C(C)C)C(C)C) [SEQ ID NO: 39]
15.4 nM | IVLSLDVPIKLK([AEEA-AEEA-γGlu-C18 diacid])QILLEQERQR[Aib]ERQQAEKNVRILERV-NH2 (N-terminus assumed; SMILES CC[C@H](C)[C@H](N)C(=O)N[C@H](C(=O)N[C@@H](CC(C)C)C(=O)N[C@@H](CO)C(=O)N[C@@H](CC(C)C)C(=O)N[C@@H](CC(=O)O)C(=O)N[C@H](C(=O)N1CCC[C@H]1C(=O)N[C@H](C(=O)N[C@@H](CCCCN)C(=O)N[C@@H](CC(C)C)C(=O)N[C@@H](CCCCNC(=O)COCCOCCNC(=O)COCCOCCNC(=O)CC[C@H](NC(=O)CCCCCCCCCCCCCCCCC(=O)O)C(=O)O)C(=O)N[C@@H](CCC(N)=O)C(=O)N[C@H](C(=O)N[C@@H](CC(C)C)C(=O)N[C@@H](CC(C)C)C(=O)N[C@@H](CCC(=O)O)C(=O)N[C@@H](CCC(N)=O)C(=O)N[C@@H](CCC(=O)O)C(=O)N[C@@H](CCCNC(=N)N)C(=O)N[C@@H](CCC(N)=O)C(=O)N[C@@H](CCCNC(=N)N)C(=O)NC(C)(C)C(=O)N[C@@H](CCC(=O)O)C(=O)N[C@@H](CCCNC(=N)N)C(=O)N[C@@H](CCC(N)=O)C(=O)N[C@@H](CCC(N)=O)C(=O)N[C@@H](C)C(=O)N[C@@H](CCC(=O)O)C(=O)N[C@@H](CCCCN)C(=O)N[C@@H](CC(N)=O)C(=O)N[C@H](C(=O)N[C@@H](CCCNC(=N)N)C(=O)N[C@H](C(=O)N[C@@H](CC(C)C)C(=O)N[C@@H](CCC(=O)O)C(=O)N[C@@H](CCCNC(=N)N)C(=O)N[C@H](C(N)=O)C(C)C)[C@@H](C)CC)C(C)C)[C@@H](C)CC)[C@@H](C)CC)C(C)C)C(C)C) [SEQ ID NO: 42]
20.9 nM | IVLSLDVPTKLK([AEEA-AEEA-γGlu-C18 diacid])QKLLKQERQR[Aib]ERQQAETNKRILERV-NH2 (N-terminus assumed; SMILES CC[C@H](C)[C@H](N)C(=O)N[C@H](C(=O)N[C@@H](CC(C)C)C(=O)N[C@@H](CO)C(=O)N[C@@H](CC(C)C)C(=O)N[C@@H](CC(=O)O)C(=O)N[C@H](C(=O)N1CCC[C@H]1C(=O)N[C@H](C(=O)N[C@@H](CCCCN)C(=O)N[C@@H](CC(C)C)C(=O)N[C@@H](CCCCNC(=O)COCCOCCNC(=O)COCCOCCNC(=O)CC[C@H](NC(=O)CCCCCCCCCCCCCCCCC(=O)O)C(=O)O)C(=O)N[C@@H](CCC(N)=O)C(=O)N[C@@H](CCCCN)C(=O)N[C@@H](CC(C)C)C(=O)N[C@@H](CC(C)C)C(=O)N[C@@H](CCCCN)C(=O)N[C@@H](CCC(N)=O)C(=O)N[C@@H](CCC(=O)O)C(=O)N[C@@H](CCCNC(=N)N)C(=O)N[C@@H](CCC(N)=O)C(=O)N[C@@H](CCCNC(=N)N)C(=O)NC(C)(C)C(=O)N[C@@H](CCC(=O)O)C(=O)N[C@@H](CCCNC(=N)N)C(=O)N[C@@H](CCC(N)=O)C(=O)N[C@@H](CCC(N)=O)C(=O)N[C@@H](C)C(=O)N[C@@H](CCC(=O)O)C(=O)N[C@H](C(=O)N[C@@H](CC(N)=O)C(=O)N[C@@H](CCCCN)C(=O)N[C@@H](CCCNC(=N)N)C(=O)N[C@H](C(=O)N[C@@H](CC(C)C)C(=O)N[C@@H](CCC(=O)O)C(=O)N[C@@H](CCCNC(=N)N)C(=O)N[C@H](C(N)=O)C(C)C)[C@@H](C)CC)[C@@H](C)O)[C@@H](C)O)C(C)C)C(C)C) [SEQ ID NO: 38]
